Here are results for 6 substances from article PMC6176016.

Assay in all cases: FRET by FACS (LSRII)
In general terms: Flow cytometry measures light scatter and fluorescence of single cells or particles in a stream.

One assay addresses WT TACI-YFP. The following applies: HEK-293T cells, double positive YFP and mCherry gate, 6 independent experiments, read off a plot.
In assay [1] the target is TACI-S (short TACI isoform) labeled with mCherry or YFP, O14836-2. The following applies: co-transfected HEK-293T cells; percent of live cells in the gate, averaged for 6 experiments.
In assay [2] the target is CD40-eYFP (pReceiver-huCD40-eYFP) (UniProt P25942). Conditions: co-transfected HEK-293T cells; percent of live cells in the gate, averaged for 6 experiments.
Assay [3] concerns the target TACI-L (long TACI isoform) labeled with mCherry or YFP (UniProt O14836). Conditions: co-transfected HEK-293T cells; percent of live cells in the gate, averaged for 6 experiments.

Chain of TACI-L (long TACI isoform) labeled with mCherry or YFP (O14836 whole entry, canonical isoform): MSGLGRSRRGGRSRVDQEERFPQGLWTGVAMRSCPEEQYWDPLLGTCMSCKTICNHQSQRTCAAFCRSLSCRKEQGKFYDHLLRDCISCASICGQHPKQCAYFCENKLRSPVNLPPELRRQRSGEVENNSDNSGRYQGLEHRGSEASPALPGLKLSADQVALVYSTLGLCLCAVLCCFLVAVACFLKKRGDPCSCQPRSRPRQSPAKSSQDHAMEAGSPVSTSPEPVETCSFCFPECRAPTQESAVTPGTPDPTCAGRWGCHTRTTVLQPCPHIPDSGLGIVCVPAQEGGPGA
Chain of CD40-eYFP (pReceiver-huCD40-eYFP) (P25942 21-277): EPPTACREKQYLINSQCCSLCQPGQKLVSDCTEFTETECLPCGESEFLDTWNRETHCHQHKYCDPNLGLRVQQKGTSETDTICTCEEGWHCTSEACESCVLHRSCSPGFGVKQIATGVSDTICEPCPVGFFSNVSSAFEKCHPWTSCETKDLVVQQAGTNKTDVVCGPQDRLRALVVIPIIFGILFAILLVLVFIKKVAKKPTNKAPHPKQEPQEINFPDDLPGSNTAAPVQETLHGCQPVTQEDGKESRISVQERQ
Chain of TACI-S (short TACI isoform) labeled with mCherry or YFP, O14836-2 (O14836 other isoform, or with tags, fused parts or gaps): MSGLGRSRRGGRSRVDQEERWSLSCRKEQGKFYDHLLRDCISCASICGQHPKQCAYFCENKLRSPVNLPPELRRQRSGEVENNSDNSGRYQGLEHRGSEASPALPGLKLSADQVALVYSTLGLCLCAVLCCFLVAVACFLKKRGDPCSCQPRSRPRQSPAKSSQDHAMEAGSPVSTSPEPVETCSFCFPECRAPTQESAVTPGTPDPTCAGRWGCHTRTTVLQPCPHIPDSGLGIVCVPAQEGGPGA

With TACI-L A181E, the response (% FRET positive cells) with WT TACI-YFP (parent: est. 90) turned out to be 72.
On the same count and under the same terms, next, TACI-L C104R: 81.
On to TACI-S A181E, for which the response (% FRET positive cells) in the assay with WT TACI-YFP (parent: est. 72) was 88.
On to TACI-S C104R, for which the response (% FRET positive cells) with WT TACI-YFP (parent: est. 72) is 74.
Turning to “WT TACI (isoform of the mutant not stated in the panel) A181E”, the response (% FRET positive cells) in assay [1] was determined as 19.6; in assay [2], 0.38; in assay [3], 16.8.
For the substance “WT TACI (isoform of the mutant not stated in the panel) C104R”, the response (% FRET positive cells) in assay [1] was determined as 18.7; in assay [2] it was 0.02; in assay [3], 14.8.
